# According to patent US20050042747A1, “Hivgp120-induced bob/gpr15 activation” (priority 2001, published 2005):
# “Also recorded” adds a separate entry of the source. Read-outs that look alike come from different tables or passages of the source.
# Tests used:
# CCR8 = molecular target: T1, CCR8 (Homo sapiens, UniProt P51685); experiment: gp120-induced calcium flux, Ghost (3) cells transfected with CCR8; assay type: cell-based; design: key: — = no calcium flux seen at any dilution tested; conditions: Ghost (3) CCR8 cells
# T1 construct: host or cells: Ghost (3) cells (human osteosarcoma, CD4+)
# Excerpt: (§1) Human osteosarcoma cell lines were transfected to express CD4, one or another of the HIV coreceptors, and a Green Fluorescent Protein reporter for active HIV infection, for the purpose of testing which of the known coreceptors was used to induce HIV infection by a given HIV strain (Morner A. J Virol 73:2343-9, 1999 and Deng K Nature 388:296-300, 1997). These cells were obtained from the AIDS Research and Reference Reagent Program, courtesy of Dr. Vineet KewalRamani and Dr. Dan Littman. These cells were grown in DMEM with 10% bovine calf serum supplemented with 0.5 mg/ml G418, 0.1 mg/ml hygromycin, and 1 microgram/ml puromycin, and were used at low passage number (less than 10). We have discovered that these cell lines are also activated by gp120 of certain viral strains, inducing a calcium flux in these cells.
# (§2) Within 4 days of plating, coreceptor-transfected Ghost (3) cells (as well as the parent cell line not transfected to express any HIV coreceptors as a control) were put in Locke's medium, then treated with Fluo-4 (5 micrograms/ml for 30 minutes at 37° C.). […] The results are given in the following table, expressed as the minimal concentration of gp120 resulting in a significant calcium flux. […]
# Bob = molecular target: T2, Bob (Homo sapiens, UniProt P49685); experiment: gp120-induced calcium flux, Ghost (3) cells transfected with Bob (Fluo-4); assay type: cell-based; design: key to minimal concentration of gp120 resulting in a significant calcium flux: — = no calcium flux seen at any dilution tested; conditions: for minimal concentration of gp120 resulting in a significant calcium flux: Ghost (3) Bob cells
# T2 construct: host or cells: Ghost (3) cells (human osteosarcoma, also transfected with CD4 and a GFP reporter)
# T2 sequence (P49685 1-360): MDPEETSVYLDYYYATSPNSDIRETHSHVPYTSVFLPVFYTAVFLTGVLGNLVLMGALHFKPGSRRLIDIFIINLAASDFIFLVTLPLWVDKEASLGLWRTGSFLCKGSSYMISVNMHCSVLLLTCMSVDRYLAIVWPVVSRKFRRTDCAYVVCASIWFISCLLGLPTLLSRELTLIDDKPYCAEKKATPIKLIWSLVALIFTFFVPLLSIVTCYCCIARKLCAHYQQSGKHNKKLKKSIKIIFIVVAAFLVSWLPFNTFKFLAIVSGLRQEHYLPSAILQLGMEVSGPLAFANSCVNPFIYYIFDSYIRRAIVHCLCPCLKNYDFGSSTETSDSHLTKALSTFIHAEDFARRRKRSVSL
# Experimental: (§3) Calcium studies were done on HT-29 cells and Ghost (3) cells loaded with Fluo 4. The cells were placed in Locke's buffer containing 5 μg/ml Fluo 4 AM ester (Molecular Probes) for 20 to 30 minutes, then in Locke's buffer for an additional 30 minutes before testing. Various concentrations of gp120IIIB (X4 trophic), gp120CM235 (R5 trophic), gp120mN (X4 trophic), gp12093TH975 (nonsyncytium-inducing primary isolate from an asymptomatic subject, trophism undetermined but likely R5), and gp120SF2 (X4R5 trophic), ranging from 10 nM to less than 1 pM, were added in Locke's buffer.^6 The gp120 proteins were obtained from the AIDS Research Reagent Referral Program. Some HT-29 cells were given one of the following pretreatments: 50 μg/ml anti-Bob37 overnight, 1 μg/ml pertussis toxin overnight, or 4.6 μg/ml U73122 for one hour. With the HT-29 cells only, similar tests were also performed with SDF-1, MIP-1α, MIP-1β, and RANTES rather than gp120. The cells were visualized every 4 seconds in a confocal microscope, using 488 nm argon laser excitation and detection filters appropriate for fluorescein-like dyes.
# as §1
# Within 4 days of plating, coreceptor-transfected Ghost (3) cells (as well as the parent cell line not transfected to express any HIV coreceptors as a control) were put in Locke's medium, then treated with Fluo-4 (5 micrograms/ml for 30 minutes at 37° C.). After an additional 30 minute incubation in Locke's buffer at room temperature, the cells were examined in a confocal microscope while gp120 of various viral strains was added, and the cells were examined at 4 second intervals to look for a gp120-induced calcium flux. The results are given in the following table, expressed as the minimal concentration of gp120 resulting in a significant calcium flux. “−” means that no reproducible calcium flux was observed. “ND” means that the gp120 of that viral strain was not tested with the stated coreceptor.
# These cells were treated with serial dilutions (100 or 250 nM to at least 1 pM, or even less if calcium fluxes were noted) of gp120. Gp120s from each of four HIV-1 strains: IIIB, CM235, SF2, and […] were used. Listed is the greatest dilution which induced a significant, reproducible calcium flux. The parental line is known to express CXCR4 at very low levels. Those results indicated by an asterisk are thought to represent this artifact.
# [1] = test system: Ghost (3) parental cell line; experiment: gp120-induced calcium flux, Ghost (3) parental cell line; assay type: cell-based, human; design: key: — = no calcium flux seen at any dilution tested
# Experimental: as §3, §1
# (§4) Within 4 days of plating, coreceptor-transfected Ghost (3) cells (as well as the parent cell line not transfected to express any HIV coreceptors as a control) were put in Locke's medium, then treated with Fluo-4 (5 micrograms/ml for 30 minutes at 37° C.). After an additional 30 minute incubation in Locke's buffer at room temperature, the cells were examined in a confocal microscope while gp120 of various viral strains was added, and the cells were examined at 4 second intervals to look for a gp120-induced calcium flux. The results are given in the following table, expressed as the minimal concentration of gp120 resulting in a significant calcium flux. “−” means that no reproducible calcium flux was observed. “ND” means that the gp120 of that viral strain was not tested with the stated coreceptor. […]
# CCR5 = molecular target: T3, CCR5 (Homo sapiens, UniProt P51681); experiment: gp120-induced calcium flux, Ghost (3) cells transfected with CCR5; assay type: cell-based; design: key: — = no calcium flux seen at any dilution tested; conditions: Ghost (3) CCR5 cells
# T3 construct: host or cells: Ghost (3) cells (human osteosarcoma, CD4+)
# Experimental: as §3, §1, §4
# CCR1 = molecular target: T4, CCR1 (Homo sapiens, UniProt P32246); experiment: gp120-induced calcium flux, Ghost (3) cells transfected with CCR1; assay type: cell-based; design: key: — = no calcium flux seen at any dilution tested; conditions: Ghost (3) CCR1 cells
# T4 construct: host or cells: Ghost (3) cells (human osteosarcoma, CD4+)
# T4 sequence (P32246 1-355): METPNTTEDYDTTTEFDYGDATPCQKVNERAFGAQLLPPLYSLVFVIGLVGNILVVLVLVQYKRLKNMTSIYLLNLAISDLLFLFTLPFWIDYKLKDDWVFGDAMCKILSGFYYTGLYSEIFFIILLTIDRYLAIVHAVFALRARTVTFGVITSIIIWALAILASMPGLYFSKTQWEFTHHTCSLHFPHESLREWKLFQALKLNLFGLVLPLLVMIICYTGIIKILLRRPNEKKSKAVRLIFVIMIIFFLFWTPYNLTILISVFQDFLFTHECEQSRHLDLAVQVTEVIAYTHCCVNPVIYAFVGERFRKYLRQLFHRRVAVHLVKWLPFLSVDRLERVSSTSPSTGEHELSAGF
# Excerpt: as §1, §2
# CCR3 = molecular target: T5, CCR3 (Homo sapiens, UniProt P51677); experiment: gp120-induced calcium flux, Ghost (3) cells transfected with CCR3; assay type: cell-based; design: key: — = no calcium flux seen at any dilution tested; conditions: Ghost (3) CCR3 cells
# T5 construct: host or cells: Ghost (3) cells (human osteosarcoma, CD4+)
# T5 sequence (P51677 1-355): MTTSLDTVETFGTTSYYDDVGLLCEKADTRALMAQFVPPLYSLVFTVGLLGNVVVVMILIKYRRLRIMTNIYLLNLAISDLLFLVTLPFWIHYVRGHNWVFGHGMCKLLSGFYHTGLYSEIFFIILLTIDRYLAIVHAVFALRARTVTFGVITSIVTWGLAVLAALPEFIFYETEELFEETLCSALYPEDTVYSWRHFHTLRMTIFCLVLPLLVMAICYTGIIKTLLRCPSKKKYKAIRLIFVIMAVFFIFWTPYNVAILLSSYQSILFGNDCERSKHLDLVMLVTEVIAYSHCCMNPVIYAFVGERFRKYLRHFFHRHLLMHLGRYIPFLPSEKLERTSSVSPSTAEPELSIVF
# Excerpt: as §1, §2
Substance,minimal concentration of gp120 resulting in a significant calcium flux (CCR8),"Bob activation / calcium signals in Bob-transfected Ghost (3) cells, in words (Bob)",minimal concentration of gp120 resulting in a significant calcium flux (Bob; serial dilutions),minimal concentration of gp120 resulting in a significant calcium flux ([1]; Ghost (3) parental line (expresses CXCR4 at very low levels)),"minimal concentration of gp120 resulting in a significant calcium flux ([1]; Ghost (3) parental line (expresses CXCR4 at very low levels), listed as IIIB)",minimal concentration of gp120 resulting in a significant calcium flux (CCR5),minimal concentration of gp120 resulting in a significant calcium flux (CCR5; listed as IIIB),minimal concentration of gp120 resulting in a significant calcium flux (CCR1),minimal concentration of gp120 resulting in a significant calcium flux (CCR3),minimal concentration of gp120 resulting in a significant calcium flux (Bob; 100 or 250 nM to at least 1 pM),"Bob activation / calcium signals in Bob-transfected Ghost (3) cells, in words (Bob; listed as SF2)",minimal concentration of gp120 resulting in a significant calcium flux ([1]; Ghost (3) parental line)
"gp120IIIB: HIV-1 envelope surface protein gp120 of strain IIIB (X4 trophic), from the AIDS Research Reagent Referral Program",—,extremely potent activator,15 fM,about 1 nM,250 nM,about 1 nM,250 nM,—,—,,,
gp120SF2: gp120 of HIV strain SF2 (X4R5 trophic),—,,,,,—,,—,—,—,do not activate Bob; also recorded: did not cause calcium signals,—
